{"source": "paper PMC5629210", "target": "SRGAP1 (UniProt Q7Z6B7)", "test": "GFP-trap of SRGAP1-GFP, blot for cortactin-mCherry", "conditions": "reference: wild type cortactin-mCherry; sites Y421,Y470,Y486", "data": [{"substance": "cortactin (from UniProt Q14247) 3YF cortactin-mCherry", "values": [{"measurement": "binding against the reference", "value": "stronger"}]}]}
